B1: HDV Ribozyme (parent)
chain: GGCCGGCAUGGUCCCAGCCUCCUCGCUGGCGCCGGCUGGGCAACAUUCCGAGGGGACCGUCCCCUCGGUAAUGGCGAAUGGGACCCA

Variants of: B1
Assay: self-cleavage, relative activity (ratio to wild type); higher = more cleavage; co-transcriptional

| Variant | self-cleavage |
| --- | --- |
| U20G U46A | 0.192 |
| U37A C44U | 0.0386 |
| C21G A83C | 0 |
| C14G G67U | 0.594 |
| G10A G73A | 0.175 |
| C19G U79G | 0.222 |
| G29A C32G | 0.0219 |
| C24A A51G | 0.665 |
| C33A G73C | 0.149 |
| C3G G52C | 0.658 |
| C44U U60A | 0.594 |
| G1U C33A | 0.295 |
| G73A G76A | 0.665 |
| G38C G50U | 0.157 |
| C19A A42G | 0.0811 |
| U9G C48A | 1.25 |
| C22G U47G | 0.0791 |
| A56G A71U | 0.957 |
| U9C G74C | 0.277 |
| C57A C75G | 0.0978 |
| C7A G40A | 0.646 |
| C13A G28A | 0.0875 |
| G40U G53A | 0.715 |
| G1U G82A | 0.241 |

| Variant | self-cleavage |
| --- | --- |
| G5A G80U | 0.0971 |
| G53A A56C | 0.787 |
| G80U C86G | 0.243 |
| G74C A77G | 0.145 |
| G6A A16U | 0.446 |
| A8C C32G | 0.185 |
| C3G U20G | 0 |
| G67A C75G | 0.181 |
| U27G C41U | 0.831 |
| C36A A83G | 0.159 |
| G38C C62U | 0.197 |
| A43U G73A | 0.322 |
| U9A A43G | 0.712 |
| G73C G80A | 0.284 |
| U9A U12A | 0.361 |
| G29A A77C | 0.111 |
| G52U C62A | 0.822 |
| U9C G11A | 0.0755 |
| G68A A87C | 0.918 |
| U12G C58G | 0.499 |
| C24A G81A | 0.0852 |
| U9A A71C | 1.05 |
| C32A C33U | 0.0779 |
| G10U G17C | 0.359 |

| Variant | self-cleavage |
| --- | --- |
| G5A C14A | 0 |
| G2A A70C | 0.157 |
| G40A U69G | 0.712 |
| C3U G11U | 0.138 |
| G54A A78C | 0.247 |
| U69C G81U | 0.369 |
| U37A G74C | 0.212 |
| C3A G74C | 0.0369 |
| C49G A51G | 0.688 |
| C15U A45C | 0.277 |
| G35A C36A | 0.115 |
| G11C G68A | 0.295 |
| G35U G81A | 0.108 |
| C61A A78U | 0.131 |
| G34U A83C | 0.133 |
| G50U G76C | 1.19 |
| G2C C14A | 0.0615 |
| G17U G40U | 0.381 |
| G68U C85A | 0.707 |
| C14A C86G | 0.378 |
| C18A G25A | 0.133 |
| U37A C61G | 0.151 |
| G28C A51C | 0 |
| A16G A71U | 1.01 |

| Variant | self-cleavage |
| --- | --- |
| A8G A56C | 0.867 |
| U20C G55A | 0.0405 |
| G55A C64G | 0.962 |
| C18U C86G | 0.704 |
| G39A C61U | 0.54 |
| C66G A71U | 1.01 |
| C33U G82U | 0.266 |
| C14G C49G | 0.383 |
| G35A G80U | 0.151 |
| C26A G55U | 1.17 |
| U60C C61U | 0.718 |
| A42C U72A | 0.266 |
| G6A G73C | 0.312 |
| C4U G81C | 0.135 |
| C58A U65A | 0.9 |
| U46A C86U | 0.594 |
| G17C C61G | 0.519 |
| C14A C30G | 0 |
| G82U A83G | 0.137 |
| U47A G81U | 0.219 |
| G50C U72A | 0.789 |
| G59A C66A | 0.867 |
| G1C G28U | 0.107 |
| G1C U20A | 0 |

| Variant | self-cleavage |
| --- | --- |
| U27G A78U | 0.0831 |
| C62U A77G | 0.831 |
| U23G C66A | 0.724 |
| G68U G73C | 0.205 |
| G40U A87G | 0.578 |
| G5U A16U | 0.0978 |
| C49U U79A | 0.811 |
| U47C C57G | 0.677 |
| C7A G28C | 0.0615 |
| C22A A78G | 0.0369 |
| C18U C58A | 0.612 |
| C18A C61G | 0.172 |
| G25C A51C | 0.128 |
| C41G C49U | 0.608 |
| U9G C41A | 0.831 |
| C63U C86G | 1.11 |
| A45G A71G | 0.831 |
| C3U A51C | 0.831 |
| A16G C66U | 0.988 |
| U37C A78U | 0.161 |
| G5A A51G | 0.203 |
| A43U C48G | 0.435 |
| C24G U27A | 0.0437 |
| G38A G53A | 0.113 |

| Variant | self-cleavage |
| --- | --- |
| G54C C61G | 1.16 |
| U60A C61G | 1.19 |
| C26A G67U | 1.04 |
| G35U C41G | 0.188 |
| G35U C41A | 0.3 |
| G5U C48A | 0.712 |
| G29C C49U | 0.128 |
| G50A G67U | 1.06 |
| C44U A56G | 0.939 |
| G29C G38C | 0.0489 |
| G29U C58A | 0.204 |
| A16C U27G | 0.138 |
| A83C C84A | 0.78 |
| C14A G50A | 0.736 |
| U27G G39C | 0.0723 |
| A43G A51G | 0.26 |
| C14G C36G | 0.237 |
| C30A U65G | 0.441 |
| C18U G74C | 0.0519 |
| G29A C49G | 0.225 |
| U46A G76C | 0.665 |
| A8C U12A | 0 |
| U47G G54C | 0.928 |
| U47A C85A | 0.962 |

| Variant | self-cleavage |
| --- | --- |
| C4A G74A | 0 |
| U9G G29A | 0.123 |
| U9C G67C | 0.703 |
| C64A G73A | 0.385 |
| G6C U69G | 0.166 |
| A45U G73U | 0.302 |
| G76C C85G | 1.23 |
| G40A G76U | 0.843 |
| C33U C58A | 1.06 |
| G34C U65A | 0.138 |
| C26U A45U | 0.77 |
| U23A C86A | 1.21 |
| C41U G74C | 0.174 |
| C41U G74U | 0.806 |
| C24A A78U | 0.0923 |
| U27A G74U | 0.427 |
| U37C G82C | 0.268 |
| C13U C86G | 0.692 |
| G2C G40C | 0.122 |
| A45C A87C | 0.554 |
| G28A G39C | 0.106 |
| U72G G74C | 0.237 |
| C7A G11C | 0 |
